Key:
[1] = target: T1, hK1 (human tissue kallikrein 1), recombinant (human, UniProt P06870 25-262); assay: SPR
T1 construct: Expressed in P. pastoris from KLK1 cDNA and purified; enzymatically active; also called KLK1; Recombinant (Pichia) Kallikrein

[2] = target: T1, hK1 (human tissue kallikrein 1), …; assay: SPR, biotinylated hK1 on streptavidin chip; Fab 50 nM after DX-2300 50 nM (competitor DX-2300)
Excerpt: Epitope grouping by SPR. Biotinylated hK1 was captured on a streptavidin coated chip to a final ligand density of 88 RU. […] The signal at the end of the injection of the Fab alone is R2.

[3] = target: T1, hK1 (human tissue kallikrein 1), …; assay: cell-based or functional assay

| Kd [1] | koff [1] | kon [1] | Fab Signal following DX-2300 (R1) [2] | IC50 (nM), inhibition of hK1 hydrolysis of Pro-Phe-Arg-AMC [3] | IC50 (nM), inhibition of hK1 enzyme activity [3] | Binder |
| --- | --- | --- | --- | --- | --- | --- |
| 1.91 nM | 0.00159 s⁻¹ | 836000 M⁻¹ s⁻¹ | 8.5 | 2.5 nM | – | M0098-E09 (Fab, V domains shown) VH: EVQLLESGGGLVQPGGSLRLSCAASGFTFSRYGMQWVRQAPGKGLEWVSYIYPSGGGTVYADSVKGRFTISRDNSKNTLYLQMNSLRAEDTAVYYCARRVAVAGSWYYYYYGMDVWGQGTTVTVSS VL: DIQMTQSPSSVSASVGDSVTISCWTIYDISSWLAWYQQRPGQAPKLLIYAASRLATGVPSRFRGSGSGTDFTLTITNLQPEDVATYYCQQTKDFPLTFGGGTRVDLKR |
| 4.8 nM | 0.000832 s⁻¹ | 173000 M⁻¹ s⁻¹ | – | 7.2 nM | – | M0097-G01 (Fab, V domains shown) VH: EVQLLESGGGLVQPGGSLRLSCAASGFTFSPYYMQWVRQAPGKGLEWVSGISSSGGSTQYADSVKGRFTISRDNSKNTLYLQMNSLRAEDTAVYYCARSQRRTYYPNFGDAFDIWGQGTMVTVSS VL: DIQMTQSPSSLSASVGDRVTITCRASQGIGNYLVWYQHKPGNVPRVLIYAASTLQSGVPSRFRGSGSGTDFTLTISGLQPEDVATYYCQKYDGAPFTFGPGTKVDLKR |
| 2.69 nM | 0.000138 s⁻¹ | 51300 M⁻¹ s⁻¹ | 2.3 | 10.1 nM | – | M0134-D07 (Fab, V domains shown) VH: EVQLLESGGGLVQPGGSLRLSCAASGFTFSRYFMIWVRQAPGKGLEWVSSIVPSGGPTRYADSVKGRFTISRDNSKNTLYLQMNSLRAEDTAVYYCARRGPVYYYDSSGSHSAFDIWGQGTMVTVSS VL: DIQMTQSPSSLSASVGDRVTITCRASQGIRNDLGWYQQKPGKAPKLLIYAASSLQSGVPSRFSGSGSGTDFTLTISSLQPEDFATYYCLQDYNYPRTFGQGTKVEIKR |
| 5.48 nM | 0.00106 s⁻¹ | 194000 M⁻¹ s⁻¹ | 25.7 | – | 34 nM | M0139-A09 (Fab, V domains shown) VH: EVQLLESGGGLVQPGGSLRLSCAASGFTFSWYFMVWVRQAPGKGLEWVSGIGPSGGLTTYADSVKGRFTISRDNSKNTLYLQMNSLRAEDTAVYYCARSDWLNYWGQGTLVTVSS VL: DIVMTQTPPSLPVNPGEPASISCRSSQSLVYSDGNTYLNWFQQRPGQSPRRLIYKVSNRDSGVPDRFSGSGSGTDFTLKISRVEAEDVGVYYCMQGTHWQRLTFGGGTKVEIKR |
| 5.81 nM | 0.000781 s⁻¹ | 134000 M⁻¹ s⁻¹ | 3 | – | > 120 nM | M0112-D07 (Fab, V domains shown) VH: EVQLLESGGGLVQPGGSLRLSCAASGFTFSFYSMSWVRQAPGKGLEWVSRIRPSGGRTDYADSVKGRFTISRDNSKNTLYLQMNSLRAEDTAVYYCARDRLYYYGSGSYYYGAFDIWGQGTMVTVSS VL: DIQMTQSPSSLSASVGDRVTITCRASQTIRTYLNWYQQKPGIAPKFLIYDASNLQTGVPSRFSGSGSGTHFTLTISSLQPEDFGTYYCQQSYGGPPTFGRGTKIEIKR |
| 7.27 nM | 0.00134 s⁻¹ | 184000 M⁻¹ s⁻¹ | – | 20.7 nM | – | M0139-F04 (Fab, V domains shown) VH: EVQLLESGGGLVQPGGSLRLSCAASGFTFSRYYMEWVRQAPGKGLEWVSSISSSGGSTEYADSVKGRFTISRDNSKNTLYLQMNSLRAEDTAVYYCAKDITPGGGSGFRLPKNYYYYGMDVWGQGTTVTVSS VL: DIQMTQSPSSLSASVGDRVTITCRASQAISTNLNWYQQKPGKAPKLLIYAASSLQSGVPSRFIGSGSGTDFTLTISSLHPEDFATYHCQQTFSPPHTFGQGTKVEIQR |
| 5.28 nM | 0.000442 s⁻¹ | 83700 M⁻¹ s⁻¹ | – | 3.3 nM | – | M0102-G12 (Fab, V domains shown) VH: EVQLLESGGGLVQPGGSLRLSCAASGFTFSKYKMVWVRQAPGKGLEWVSSIYPSGGITAYADSVKGRFTISRDNSKNTLYLQMNSLRAEDTAMYYCAKDITPGGGSGFRLPKNYYYYGMDVWGQGTTVTVSS VL: AQSELTQPPSASGTPGQRVTISCSGTLSNIGTNIVSWFQQLPGTAPKLLIYNDHRRPSGVPDRFSGSKSATSASLAISGLQSEDEADYYCAAWDDSLNGVVFGGGTKLTVLS |
| 3.24 nM | 0.00741 s⁻¹ | 2.29e+06 M⁻¹ s⁻¹ | – | 4.5 nM | – | M0102-H11 (Fab, V domains shown) VH: EVQLLESGGGLVQPGGSLRLSCAASGFTFSKYPMTWVRQAPGKGLEWVSSISSSGGKTQYADSVKGRFTISRDNSKNTLYLQMNSLRAEDTAVYYCTRGGSSTLYFMDVWGQGTTVTVSS VL: DIQMTQSPATLSLSPGERATLSCRASQSVSSYLAWYQQKPGQAPRLLIYGASSRATGIPDRFSGSGSGTDFTLTISSLEPEDFAVYYCQQRGGWPLTFGGGTKVEIRR |
| 1.87 nM | 0.000233 s⁻¹ | 125000 M⁻¹ s⁻¹ | – | 2.9 nM | – | M0139-E12 (Fab, V domains shown) VH: EVQLLESGGGLVQPGGSLRLSCAASGFTFSWYSMNWVRQAPGKGLEWVSSIGPSGGGTKYADSVKGRFTISRDNSKNTLYLQMNSLRAEDTAVYYCASRGQRKQWLPPNGAFDIWGQGTMVTVSS VL: DIQMTQSPSSVSASVGDRVTMTCRASRGISNWLAWYQQKPGKAPELLIHSASTLHAGVPSRFSGSGSGTDFTLTISSLQPGDFATYYCQEGNSFPYTFGQGTNLQIKR |
| 0.999 nM | 0.000166 s⁻¹ | 167000 M⁻¹ s⁻¹ | 4.8 | 1.2 nM | – | M0114-G06 (Fab, V domains shown) VH: EVQLLESGGGLVQPGGSLRLSCAASGFTFSYYEMEWVRQAPGKGLEWVSSIRPSGGRTVYADSVKGRFTISRDNSKNTLYLQMNSLRAEDTAVYYCAKGRSNYYGSGSYSPKYFQHWGQGTLVTVSS VL: DIQMTQSPSSLSASVGDRVTITCRASQGISSWLAWYQQRPERAPKSLIYAASSLERGVPSRFRGSGSGTDFTLTISSLQPEDFGTYYCQQYHNFPLTFGGGTRVEINR |
| 6.61 nM | 0.00197 s⁻¹ | 298000 M⁻¹ s⁻¹ | 6.7 | 5.2 nM | – | M0117-F04 (Fab, V domains shown) VH: EVQLLESGGGLVQPGGSLRLSCAASGFTFSMYVMNWVRQAPGKGLEWVSRIGSSGGGTLYADSVKGRFTISRDNSKNTLYLQMNSLRAEDTAVYYCARVSVYRIRNYYYYAMDVWGQGTTVTVSS VL: DIQMTQSPSSLSASVGDRVTITCRASQGIGNYLAWYQQKPGKAPNLLIYKTSNLQSGVPSRFRGSGSGTEFTLTITSVQPDDFATYFCQRYDSYSQYIFGQGTKLETKR |
| 7.98 nM | 0.00258 s⁻¹ | 323000 M⁻¹ s⁻¹ | 5 | – | 25 nM | M0136-A07 (Fab, V domains shown, No HC-136-A07 entry is printed) VH: EVQLLESGGGLVQPGGSLRLSCAASGFTFSWYHMYWVRQAPGKGLEWVSYIRPSGGNTNYADSVKGRFTISRDNSKNTLYLQMNSLRAEDTAMYYCARDRRGYSSSKGYYYYGMDVWGQGTTVTVSS VL: not shown |

Reference: patent publication US7329737 (DYAX, dated 2008)
